Data published in patent US10143730B2, “Peptides and combination of peptides for use in immunotherapy against various cancers” (immatics biotechnologies GmbH, priority 2015, dated 2018).

Each substance was assayed against T1, HLA-A*02 (Homo sapiens, UniProt P04439, D140Y/D185E/D98H/E176V/E277Q/G131W/G231S/I119V/I121R/I166T/I218V/L300P/N151K/N90K/P208A/P217A/Q86G/Q94H/R138H/R169H) (assay: MHC binding assay, UV-ligand exchange with beta2m ELISA (peptide exchange yield)). Settings: binding to HLA-A*02.
T1 construct: made in house
Excerpt: Candidate peptides for T cell based therapies according to the present invention were further tested for their MHC binding capacity (affinity). The individual peptide-MHC complexes were produced by UV-ligand exchange, where a UV-sensitive peptide is cleaved upon UV-irradiation, and exchanged with the peptide of interest as analyzed. Only peptide candidates that can effectively bind and stabilize the peptide-receptive MHC molecules prevent dissociation of the MHC complexes. To determine the yield of the exchange reaction, an ELISA was performed based on the detection of the light chain (β2m) of stabilized MHC complexes. The assay was performed as generally described in Rodenko et al. (Rodenko et al., 2006).
96 well MAXISorp plates (NUNC) were coated over night with 2 ug/ml streptavidin in PBS at room temperature, washed 4× and blocked for 1h at 37° C. in 2% BSA containing blocking buffer. Refolded HLA-A*02:01/MLA-001 monomers served as standards, covering the range of 15-500 ng/ml. Peptide-MHC monomers of the UV-exchange reaction were diluted 100 fold in blocking buffer. Samples were incubated for 1h at 37° C., washed four times, incubated with 2 ug/ml HRP conjugated anti-32m for 1h at 37° C., washed again and detected with TMB solution that is stopped with […]. Absorption was measured at 450 nm. Candidate peptides that show a high exchange yield (preferably higher than 50%, most preferred higher than 75%) are generally preferred for a generation and production of antibodies or fragments thereof, and/or T cell receptors or fragments thereof, as they show sufficient avidity to the MHC molecules and prevent dissociation of the MHC complexes.

Row | Substance | Peptide exchange (MHC class I binding score, peptide exchange yield)
1 | 84 (ALCPRIHEV; listed as Homo sapiens) [compound 84] | ++++ (> = 75% = ++++)
2 | 85 (VLNDILVRA; listed as Homo sapiens) [compound 85] | +++ (50%-75% = +++)
3 | 86 (SVDSHFQEV; listed as Homo sapiens) [compound 86] | ++ (20%-49% = ++)
4 | 87 (TIYKDFVYI; listed as Homo sapiens) [compound 87] | ++ (20%-49% = ++)
5 | 88 (AQADHLPQL; listed as Homo sapiens) [compound 88] | ++ (20%-49% = ++)
6 | 89 (QLAPVFQRV; listed as Homo sapiens) [compound 89] | ++ (20%-49% = ++)
7 | 94 (LLLPAVPVGA; listed as Homo sapiens) [compound 94] | +++ (50%-75% = +++)
8 | 95 (GLLGSLFFL; listed as Homo sapiens) [compound 95] | ++++ (> = 75% = ++++)
9 | 98 (RLFPDFFTRVAL; listed as Homo sapiens) [compound 98] | ++ (20%-49% = ++)
10 | 99 (YLLQSVNQLLL; listed as Homo sapiens) [compound 99] | ++ (20%-49% = ++)
11 | 100 (ALLGMIIVGV; listed as Homo sapiens) [compound 100] | + (<20% = +)
12 | 101 (ALADFMLSL; listed as Homo sapiens) [compound 101] | +++ (50%-75% = +++)
13 | 102 (VLLDIQEVFQI; listed as Homo sapiens) [compound 102] | +++ (50%-75% = +++)
14 | 103 (YLVSEIFKA; listed as Homo sapiens) [compound 103] | +++ (50%-75% = +++)
15 | 104 (ALISWQPPRA; listed as Homo sapiens) [compound 104] | +++ (50%-75% = +++)
16 | 105 (ALLGTKILL; listed as Homo sapiens) [compound 105] | +++ (50%-75% = +++)
17 | 106 (FINDSIVYL; listed as Homo sapiens) [compound 106] | +++ (50%-75% = +++)
18 | 107 (LLVPTSGIYFV; listed as Homo sapiens) [compound 107] | +++ (50%-75% = +++)
19 | 108 (ILLKNLVTI; listed as Homo sapiens) [compound 108] | ++ (20%-49% = ++)
20 | 109 (SLDPSVTHL; listed as Homo sapiens) [compound 109] | ++ (20%-49% = ++)
21 | 110 (FLLGVSKEV; listed as Homo sapiens) [compound 110] | +++ (50%-75% = +++)
22 | 111 (AIVDLIHDI; listed as Homo sapiens) [compound 111] | ++ (20%-49% = ++)
23 | 112 (SLGKFTFDV; listed as Homo sapiens) [compound 112] | ++++ (> = 75% = ++++)
24 | 113 (FLERGLESA; listed as Homo sapiens) [compound 113] | ++ (20%-49% = ++)
25 | 114 (QLIQTLHAV; listed as Homo sapiens) [compound 114] | +++ (50%-75% = +++)

Row | Substance | Peptide exchange (MHC class I binding score, peptide exchange yield)
26 | 115 (SLDPDTLPAV; listed as Homo sapiens) [compound 115] | ++ (20%-49% = ++)
27 | 117 (KMPDVELFV; listed as Homo sapiens) [compound 117] | +++ (50%-75% = +++)
28 | 118 (QLWQFLVTL; listed as Homo sapiens) [compound 118] | +++ (50%-75% = +++)
29 | 119 (FIIQGLRSVGA; listed as Homo sapiens) [compound 119] | +++ (50%-75% = +++)
30 | 120 (VTPVTVSAV; listed as Homo sapiens) [compound 120] | + (<20% = +)
31 | 121 (FTIFRTISV; listed as Homo sapiens) [compound 121] | +++ (50%-75% = +++)
32 | 122 (GVVDPVHGV; listed as Homo sapiens) [compound 122] | ++ (20%-49% = ++)
33 | 123 (VLDPALPALV; listed as Homo sapiens) [compound 123] | ++ (20%-49% = ++)
34 | 124 (KVMATIEKV; listed as Homo sapiens) [compound 124] | ++ (20%-49% = ++)
35 | 125 (SLADYEHFV; listed as Homo sapiens) [compound 125] | ++++ (> = 75% = ++++)
36 | 126 (QMFQYFITV; listed as Homo sapiens) [compound 126] | ++++ (> = 75% = ++++)
37 | 127 (KLDGNELDL; listed as Homo sapiens) [compound 127] | +++ (50%-75% = +++)
38 | 128 (TQSPATLSV; listed as Homo sapiens) [compound 128] | ++ (20%-49% = ++)
39 | 129 (RLQDILWFL; listed as Homo sapiens) [compound 129] | ++++ (> = 75% = ++++)
40 | 130 (SLLGGTFVGI; listed as Homo sapiens) [compound 130] | +++ (50%-75% = +++)
41 | 131 (VTSNSGILGV; listed as Homo sapiens) [compound 131] | +++ (50%-75% = +++)
42 | 132 (ILGEVLAQL; listed as Homo sapiens) [compound 132] | +++ (50%-75% = +++)
43 | 133 (ALLPRLHQL; listed as Homo sapiens) [compound 133] | ++++ (> = 75% = ++++)
44 | 134 (GLAVPTPSV; listed as Homo sapiens) [compound 134] | +++ (50%-75% = +++)
45 | 135 (HLSTIIHEA; listed as Homo sapiens) [compound 135] | +++ (50%-75% = +++)
46 | 136 (FLFGGVLMTL; listed as Homo sapiens) [compound 136] | ++ (20%-49% = ++)
47 | 142 (ILVEGISTV; listed as Homo sapiens) [compound 142] | +++ (50%-75% = +++)
48 | 143 (ALLPELREV; listed as Homo sapiens) [compound 143] | +++ (50%-75% = +++)
49 | 145 (YLWATIQRI; listed as Homo sapiens) [compound 145] | +++ (50%-75% = +++)
50 | 146 (ALHFSEDEI; listed as Homo sapiens) [compound 146] | ++ (20%-49% = ++)
